Measurements as given in patent publication US20210324108A1 (Hoffmann-La Roche, published 2021).

How the values were obtained:
[1] = molecular target: T1, human 4-1BB on Jurkat-hu4-1BB-NFκB-luc2 reporter cells (human, UniProt Q07011 24-255); assay: cell-based or functional assay
[2] = molecular target: T1, human 4-1BB on Jurkat-hu4-1BB-NFκB-luc2 …; assay: cell-based or functional assay; remark: listed apart in the source

T1 sequence (Q07011 24-255 limits assumed): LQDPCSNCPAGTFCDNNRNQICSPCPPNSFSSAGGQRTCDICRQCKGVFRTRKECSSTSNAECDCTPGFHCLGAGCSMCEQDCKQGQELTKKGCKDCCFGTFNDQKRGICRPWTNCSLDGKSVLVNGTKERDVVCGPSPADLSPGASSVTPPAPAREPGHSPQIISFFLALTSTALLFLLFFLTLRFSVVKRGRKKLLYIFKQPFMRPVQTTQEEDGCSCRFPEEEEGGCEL

Row | EC50 of NFκB-luciferase activation in Jurkat-hu4-1BB-NFκB-luc2 cells with NIH/3T3-huFAP clone 19 [1] [nM] | area under the curve (AUC) of NFκB-luciferase activation in Jurkat-hu4-1BB-NFκB-luc2 cells with NIH/3T3-huFAP clone 19 [2] | Binder
1 | 0.321 | 15500 | anti-4-1BB (20H4.9) huIgG1 P329GLALA antibody (antibody, V domains shown) VH: QVQLQQWGAGLLKPSETLSLTCAVYGGSFSGYYWSWIRQSPEKGLEWIGEINHGGYVTYNPSLESRVTISVDTSKNQFSLKLSSVTAADTAVYYCARDYGPGNYDWYFDLWGRGTLVTVSS VL: EIVLTQSPATLSLSPGERATLSCRASQSVSSYLAWYQQKPGQAPRLLIYDASNRATGIPARFSGSGSGTDFTLTISSLEPEDFAVYYCQQRSNWPPALTFGGGTKVEIK
2 | 0.701 | 13000 | anti-4-1BB (20H4.9) huIgG4 (antibody, V domains shown) VH: QVQLQQWGAGLLKPSETLSLTCAVYGGSFSGYYWSWIRQSPEKGLEWIGEINHGGYVTYNPSLESRVTISVDTSKNQFSLKLSSVTAADTAVYYCARDYGPGNYDWYFDLWGRGTLVTVSS VL: EIVLTQSPATLSLSPGERATLSCRASQSVSSYLAWYQQKPGQAPRLLIYDASNRATGIPARFSGSGSGTDFTLTISSLEPEDFAVYYCQQRSNWPPALTFGGGTKVEIK
